This note sets out measurements from patent US20100196385A1 (AstraZeneca / MedImmune, published 2010).

In assay [1] the target is T1, full length human DLL4 (human, UniProt Q9NR61 27-685).
T1 construct: whole, on cells; also called native DLL4 expressed in HEK293 cells
As to the kind of experiment: FMAT, hybridoma supernatant, 293T cells with human DLL4. Here is the method:
(§1) Cells diluted in PBS containing 2% FBS were seeded at a density of 3000 expressing and 15000 mock transfected cells per well in 384 well plates (Corning Costar, catalog #3712). Immediately after plating, 15 or 20 μl/well of hybridoma supernatants and 10 μl/well of secondary antibody (Goat anti-human IgG Fc Cy5, final concentration 750 ng/ml) were added and plates incubated for 3 h at room temperature prior to reading the fluorescence on the FMAT 8200 instrument (Applied Biosystems). The binding of human Notch1/Fc chimera (R&D systems, catalog #3647-TK), diluted 1:2 from 2.86 μg/ml was used as a positive control for DLL4 and human Notch3/Fc chimera diluted from 10 μg/ml was used a positive control for binding to Jagged1. Results for 12 hybridoma supernatants showing binding of hybridoma supernatants to human/cynomolgus monkey DLL4 and human Jagged are shown in Table 3.

Assay [2] concerns the target T2, human Dll1 (human, UniProt O00548 18-723).
T2 construct: whole, on cells
T2 sequence (looked up): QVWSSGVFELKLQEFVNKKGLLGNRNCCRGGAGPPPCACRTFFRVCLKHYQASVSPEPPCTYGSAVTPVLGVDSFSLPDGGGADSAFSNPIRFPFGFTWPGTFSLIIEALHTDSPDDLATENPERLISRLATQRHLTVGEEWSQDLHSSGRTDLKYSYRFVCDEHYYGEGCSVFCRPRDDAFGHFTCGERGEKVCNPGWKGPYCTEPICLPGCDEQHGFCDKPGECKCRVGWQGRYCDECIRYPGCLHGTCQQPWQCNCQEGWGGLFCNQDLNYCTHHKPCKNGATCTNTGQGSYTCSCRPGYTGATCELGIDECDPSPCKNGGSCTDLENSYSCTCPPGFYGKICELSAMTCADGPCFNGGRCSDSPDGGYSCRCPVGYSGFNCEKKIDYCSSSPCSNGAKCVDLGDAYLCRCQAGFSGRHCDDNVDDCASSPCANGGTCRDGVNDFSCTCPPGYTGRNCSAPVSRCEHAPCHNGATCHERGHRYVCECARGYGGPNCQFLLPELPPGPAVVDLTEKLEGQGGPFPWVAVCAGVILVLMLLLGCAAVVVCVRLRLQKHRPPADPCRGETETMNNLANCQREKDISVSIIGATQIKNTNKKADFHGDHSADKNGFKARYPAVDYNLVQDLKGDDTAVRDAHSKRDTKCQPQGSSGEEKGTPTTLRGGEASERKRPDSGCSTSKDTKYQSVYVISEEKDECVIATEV
As to the kind of experiment: FACS, 15 µg/ml, 293T cells with human Dll1. Here is the method: (§2) The ability of the purified antibodies to bind to human Jagged1 and Dll1 was determined by FACS analysis. […] Cells were resuspended in PBS containing 2% FCS and seeded at 50000 cells/well into V-bottomed plates. Anti-DLL4 antibodies diluted in PBS containing 2% FCS were added at a final concentration of 5 or 15 μg/ml and plates were incubated for 1 h at 4° C. […] Data was analyzed by comparing the shift in geometric mean fluorescence in the mock-transfected cells to that observed in the Jagged1- or Dll1-transfected cells and is shown in Tables 16 and 17.
For orientation: In flow cytometry, cells or beads pass a laser one at a time.

For assay [3], the target named is DLL4 extracellular domain (R&D systems, catalog #1506-D4/CF) (UniProt Q9NR61 27-529, limits assumed). Description: cell-based or functional assay.
Sequence of DLL4 extracellular domain (R&D systems, catalog #1506-D4/CF) (Q9NR61 27-529 limits assumed): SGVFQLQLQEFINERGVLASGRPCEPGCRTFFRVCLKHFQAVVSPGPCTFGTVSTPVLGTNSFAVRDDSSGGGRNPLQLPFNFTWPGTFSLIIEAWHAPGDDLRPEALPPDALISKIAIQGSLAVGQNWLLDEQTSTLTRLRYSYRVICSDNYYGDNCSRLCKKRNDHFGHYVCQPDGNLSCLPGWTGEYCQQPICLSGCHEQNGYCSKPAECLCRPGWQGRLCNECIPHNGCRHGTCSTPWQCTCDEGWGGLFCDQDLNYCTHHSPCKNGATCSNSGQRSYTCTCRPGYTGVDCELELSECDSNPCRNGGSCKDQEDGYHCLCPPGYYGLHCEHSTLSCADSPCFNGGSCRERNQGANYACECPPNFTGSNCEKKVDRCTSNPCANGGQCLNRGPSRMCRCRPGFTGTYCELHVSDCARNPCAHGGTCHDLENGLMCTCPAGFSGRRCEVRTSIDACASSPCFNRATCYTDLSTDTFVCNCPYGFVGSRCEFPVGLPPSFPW
Assay [4] has as its target T2, human Dll1. As to the kind of experiment: FACS, 15 µg/ml, 293T cells with human Dll1 vs mock. Here is the method: as §2
The target of assay [5] is T3, human Jagged1 (human, UniProt P78504 34-1218).
T3 construct: whole, on cells
T3 sequence (P78504 34-1218): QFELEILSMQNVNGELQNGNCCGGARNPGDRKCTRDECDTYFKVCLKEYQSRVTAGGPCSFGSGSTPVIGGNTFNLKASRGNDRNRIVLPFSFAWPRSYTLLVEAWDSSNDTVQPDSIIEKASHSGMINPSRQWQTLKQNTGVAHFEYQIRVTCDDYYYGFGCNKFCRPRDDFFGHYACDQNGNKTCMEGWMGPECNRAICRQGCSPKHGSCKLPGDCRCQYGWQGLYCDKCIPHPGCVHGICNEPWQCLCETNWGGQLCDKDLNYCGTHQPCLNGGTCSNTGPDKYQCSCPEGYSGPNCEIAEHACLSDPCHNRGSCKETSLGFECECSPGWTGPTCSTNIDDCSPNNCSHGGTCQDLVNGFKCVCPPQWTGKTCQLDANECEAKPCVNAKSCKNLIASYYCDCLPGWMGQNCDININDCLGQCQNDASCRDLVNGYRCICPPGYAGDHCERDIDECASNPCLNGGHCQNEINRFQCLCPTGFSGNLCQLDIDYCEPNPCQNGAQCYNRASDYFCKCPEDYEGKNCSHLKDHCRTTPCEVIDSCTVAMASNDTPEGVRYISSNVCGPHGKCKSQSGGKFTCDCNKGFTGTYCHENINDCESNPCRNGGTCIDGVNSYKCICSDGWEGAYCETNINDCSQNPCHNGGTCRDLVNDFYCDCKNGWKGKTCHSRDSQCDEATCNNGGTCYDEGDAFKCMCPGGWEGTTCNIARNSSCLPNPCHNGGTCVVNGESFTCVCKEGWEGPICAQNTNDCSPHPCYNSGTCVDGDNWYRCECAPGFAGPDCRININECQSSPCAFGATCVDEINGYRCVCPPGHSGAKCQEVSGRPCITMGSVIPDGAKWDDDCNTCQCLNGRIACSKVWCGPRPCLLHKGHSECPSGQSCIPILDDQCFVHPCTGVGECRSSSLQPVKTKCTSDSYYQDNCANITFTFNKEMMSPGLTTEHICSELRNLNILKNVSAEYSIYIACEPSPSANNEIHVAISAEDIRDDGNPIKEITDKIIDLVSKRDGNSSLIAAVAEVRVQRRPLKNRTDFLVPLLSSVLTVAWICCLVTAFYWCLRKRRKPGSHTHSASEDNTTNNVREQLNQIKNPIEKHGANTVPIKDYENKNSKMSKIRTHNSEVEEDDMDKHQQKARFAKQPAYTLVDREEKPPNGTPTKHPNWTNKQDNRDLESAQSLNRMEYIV
As to the kind of experiment: FACS, 5 µg/ml, 293T cells with human Jagged1. The protocol:
as §2

Assay [6] addresses T3, human Jagged1. Description: FACS, 5 µg/ml, 293T cells with human Jagged1 vs mock. Here is the method: as §2
Assay [7] addresses T1, full length human DLL4. As to the kind of experiment: FMAT competition, purified antibody vs Alexa-647 human Notch1/Fc, 293T cells with human DLL4. The protocol: To discriminate between the purified antibodies based upon their ability to prevent the interaction between full-length recombinant DLL4 and soluble Notch1/Fc, the following assays were performed. Transfected and untransfected 239T cells were reconstituted in PBS containing 2% FCS and 5000 transfected and 17500 non-transfected cells were plated in 30 μl into wells of a 384-well tissue culture plate (Corning Costar, catalog #3712). Subsequently, 30 μl of purified antibodies, serial diluted from 5 μg/ml hybridoma supernatant was added and plates were incubated at 4° C. for 1 h, at which time 20 μl of 100 ng/ml Alexa-647 labeled human Notch1/Fc was added. After a further 3 h incubation at 4° C., the amount of bound Notch1/Fc was determined by reading the fluorescence in each well using an FMAT 8200 instrument (Applied Biosystems).

In assay [8] the target is T3, human Jagged1. Description: FMAT, hybridoma supernatant, 293T cells with human Jagged1. Here is the method: as §1
The target in assay [9] is T1, full length human DLL4. As to the kind of experiment: FMAT competition, supernatant vs Alexa-647 human Notch1/Fc, 293T cells with human DLL4. Here is the method:
Transfected and untransfected 239T cells were reconstituted in PBS containing 2% FCS and 5000 transfected and 17500 non-transfected cells were plated in 20 μl into wells of a 384-well tissue culture plate (Corning Costar, catalog #3712). Subsequently, 20 μl of hybridoma supernatant was added and plates were incubated at 4° C. for 1 h, at which time 20 μl of Alexa-647 labeled human Notch1/Fc was added at a final concentration of 6.7 ng/ml. After a further 3 h incubation at 4° C., the amount of bound Notch1/Fc was determined by reading the fluorescence in each well using an FMAT 8200 instrument (Applied Biosystems). Results are expressed as % inhibitions with the minimum inhibition in the assay being determined by the effects of non-DLL4 binding supernatants prepared in a similar way as described in example 2, and the maximum inhibition being defined as the signal obtained in the presence of a saturating concentration of unlabeled Notch1/Fc. N.T.=not tested

Assay [10] concerns the target T1, full length human DLL4. As to the kind of experiment: FACS binding, HEK293 cells with human DLL4. The protocol:
(§3) The activity of the mutated antibodies was assessed in two ways: firstly, the ability of the antibodies to block the binding of soluble Notch1/Fc to full length human DLL4 stably expressed in HEK293 cells as described in Example 3 was determined and, secondly, the binding of the antibodies to the same cell line used in the receptor-ligand competition studies was determined. For the binding studies, HEK293 cells stably overexpressing human DLL4 were resuspended in PBS containing 2% FCS at a concentration of 50,000 cells/well and incubated with titrations of antibody (final concentrations 0.01-10 μg/ml) for 1 h at 4° C. The cells were then washed and incubated with 0.31 μg/ml anti-human IgG-Fc-FITC (BD Pharmingen, cat#555786) for 30 minutes at 4° C. Bound […] was detected using FACS analysis. Results of these studies are summarized in Table 23, which show the effects of specific mutations to sequences of 9G8 and 2H10 on the ability of the antibodies to compete with Notch1 for binding to human DLL4 or to bind to human DLL4 relative to unmutated antibodies.

The target in assay [11] is T1, full length human DLL4. As to the kind of experiment: FACS competition vs Notch1/Fc, HEK293 cells with human DLL4. The protocol:
Further experiments were performed on selected antibodies using HEK293 cells that were stably transfected with either human, mouse or cynomolgus monkey DLL4 using retroviral constructs. In these experiments, anti-DLL4 antibodies (final concentration: 10-0.01 μg/ml) diluted in PBS containing 2% FCS were added to DLL4-expressing HEK 293 cells (50000 cells/well diluted in PBS containing 2% FCS) and incubated for 1 h at 4° C. Subsequently, Alexa-647 labeled human, rat or APC labeled mouse Notch1/Fc (e.g. R&D Systems, catalog #3647-TK-050, 1057-TK-050, 5267-TK-050, respectively) was added at a final concentration of 0.01-0.5 μg/ml and plates were incubated for a further 2 h at 4° C. prior to washing and reading on a FACSCalibur instrument.
as §3

Numbering of substitutions follows the chain as printed. In names and notes the source's numbering stands.

T1 sequence (Q9NR61 27-685): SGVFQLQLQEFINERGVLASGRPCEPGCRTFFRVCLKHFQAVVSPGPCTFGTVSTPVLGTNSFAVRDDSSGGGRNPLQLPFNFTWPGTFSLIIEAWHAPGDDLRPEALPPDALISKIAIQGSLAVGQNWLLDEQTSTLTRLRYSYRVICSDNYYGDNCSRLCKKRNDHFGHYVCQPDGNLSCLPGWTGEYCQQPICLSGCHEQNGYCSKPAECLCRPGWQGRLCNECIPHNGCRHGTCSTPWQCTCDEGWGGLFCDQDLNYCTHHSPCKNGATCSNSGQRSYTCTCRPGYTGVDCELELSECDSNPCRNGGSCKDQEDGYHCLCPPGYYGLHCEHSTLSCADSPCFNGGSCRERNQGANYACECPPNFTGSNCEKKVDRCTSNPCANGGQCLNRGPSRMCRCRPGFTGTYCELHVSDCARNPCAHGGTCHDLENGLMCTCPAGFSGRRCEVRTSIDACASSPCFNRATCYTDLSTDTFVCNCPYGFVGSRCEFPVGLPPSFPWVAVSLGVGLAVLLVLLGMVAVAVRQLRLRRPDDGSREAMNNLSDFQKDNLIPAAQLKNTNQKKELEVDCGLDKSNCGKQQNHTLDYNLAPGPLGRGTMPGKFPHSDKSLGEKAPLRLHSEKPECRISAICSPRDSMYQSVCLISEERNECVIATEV

B1: 21F7 (antibody, IgG2, V domains shown)
VH: QVQLVQSGAEVKKPGASVKVSCQASGYTFTNYGISWVRQAPGQGLEWMGWINAYNGNTNYAQNLQGRVTMTTDTSTNTAYMELRSLRSDDTAVYYCARVAAAAFFDYWDQGTLVTVSS
VL: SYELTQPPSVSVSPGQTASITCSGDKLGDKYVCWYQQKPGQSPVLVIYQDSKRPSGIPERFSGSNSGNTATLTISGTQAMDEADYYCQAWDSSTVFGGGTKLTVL
notes: Fully human; also used where no isotype is printed
As usually defined, the % inhibition is the relative decrease from the control value, in per cent. For orientation: IC50 means the midpoint of a concentration-inhibition curve. Low readings indicate greater potency in that assay, high ones weaker potency in that assay. As for B1, in assay [1], the Count worked out at 200, the FL1 came out at 10400 and the FL1 x count is 2.08e+06. Besides, the “Dll1/293T X Geo mean” value in [2] came out at 30.2. Moreover, in assay [3], the “% inhibition 1 µg/ml, N = 1 (HUVEC proliferation on coated DLL4)” value was 30% and the “% inhibition 10 µg/ml, N = 1 (HUVEC proliferation on coated DLL4)” value worked out at 48%. In assay [4], the Dll1/mock ratio was found to be 1.13. Also, in assay [5], the “Jagged1/293T X Geo mean” value came out at 13.8. Also, in assay [6], the Jagged1/mock ratio is 1.01. In assay [7], the “% inhibition at 0.020 nM” value came to 11%, the “% inhibition at 0.070 nM” value came to 17%, the “% inhibition at 0.21 nM” value was 7% and the “% inhibition at 0.62 nM” value was -22%. Moreover, in [7], the “% inhibition at 1.9 nM” value stood at 35%, the “% inhibition at 5.6 nM” value stood at 116%, the “% inhibition at 16.7 nM” value stood at 104% and the IC50 is 1.95 nM. In assay [8], this molecule displayed a Count of 1, an FL1 of 2070 and an FL1 x count of 2070. For the same molecule, in assay [9], the “% inhibition n = 2” value is 93%, the “% inhibition n = 3” value turned out to be 140% and the Mean % inhibition was 117%.

B2: 9G8 IgG2 VH wt/VL wt (antibody, V domains shown)
VH: QLQLQESGPGLVKPSETLSLSCTVSGGSISSSSSYWGLIRQPPGKGLEWIGSIYYSGSTYYSPSLKSRVSISVDTSKNQFSLKLSSVTAADTAVYFCARQGYGGHPDVFDIWGQGTMVTVSS
VL: SSELTQSPSVSVSPGQTARITCSGDKLGDVYVCWYQQKTGQSPVLVIYEDTKRPSGIPERFSGSNSGNTATLTISGTQVMDEADYYCQAWDSTTAVIFGGGTKLTVL
notes: IgG2, transiently expressed
The EC50 is the concentration that produces a half-maximal response. A higher EC50 goes with a less potent agent. In [10], B2 returned an EC50 of 0.071 µg/mL. The IC50 in assay [11] was determined as 0.17 µg/mL.

B3: 9G8 IgG2 VH L38W/VL wt (antibody, V domains shown)
VH: B2 VH with L38W
VL: B2 VL
notes: IgG2
Take B3: the EC50 in assay [10] worked out at 0.07 µg/mL. In assay [11], the half-inhibitory concentration (IC50) was found to be 0.133 µg/mL.

B4: 9G8 IgG2 VH wt/VL S7P (antibody, V domains shown)
VH: B2 VH
VL: B2 VL with S7P
notes: IgG2
With B4, the EC50 in [10] was determined as 0.082 µg/mL. This molecule also gave an IC50 in [11] of 0.181 µg/mL.

B5: 9G8 IgG2 VH L38W/VL S7P (antibody, V domains shown)
VH: B2 VH with L38W
VL: B2 VL with S7P
notes: IgG2
Turning to B5, in [10], the response was half-maximal at 0.074 µg/mL (EC50). In assay [11], this molecule yielded an IC50 of 0.155 µg/mL.

B6: 9G8 IgG2 VH L38W/VL C33S (antibody, V domains shown)
VH: B2 VH with L38W
VL: B2 VL with C33S
notes: IgG2
For the molecule B6, in assay [10], the midpoint of the response, the EC50, lay at 0.051 µg/mL. The molecule further displayed an IC50 in assay [11] of 0.107 µg/mL.

B7: 9G8 IgG2 VH wt/VL V79A (antibody, V domains shown)
VH: B2 VH
VL: B2 VL with V79A
notes: IgG2
As to B7, in assay [10], the concentration giving a half-maximal response (EC50) was 0.095 µg/mL. The molecule further displayed an IC50 in assay [11] of 0.211 µg/mL.

B8: 9G8 IgG2 VH wt/VL C33S (antibody, V domains shown)
VH: B2 VH
VL: B2 VL with C33S
notes: IgG2
On to B8, for which the 50% effective concentration (EC50) in [10] stood at 0.067 µg/mL. The molecule also displayed an IC50 in assay [11] of 0.136 µg/mL.

B9: 2H10 IgG2 VH wt/VL wt (antibody, V domains shown)
VH: QVQLVESGGGVVQPGRSLRLSCAASGFTFSRHGMHWVRQAPGKGLEWVAVVWFDGSNIYYADSVKGRFTISRDNSKNTLYLQMNSLRAEDTAMYYCARDSRIAAADYWGQGTLVTVSS
VL: SYELTQPPSVSVSPGQTVSITCSGDKLGDKYVCWYQQKPGQSPVLVIYQESKRPSGIPERFSGSSSGNTATLTISGTQAMDEADYYCQTWDSSLVVFGGGTKLTVL
notes: IgG2, transiently expressed
As to B9, in assay [10], a half-maximal response (EC50) required 0.043 µg/mL. The molecule also gave an IC50 in assay [11] of 0.224 µg/mL.

B10: 2H10 IgG2 VH wt/VL C33S (antibody, V domains shown)
VH: B9 VH
VL: B9 VL with C33S
notes: IgG2
The molecule B10 displayed an EC50 in assay [10] of 0.031 µg/mL. The IC50 in [11] was 0.084 µg/mL.
